Experimental data taken from US20190336615A1 (SILVERBACK THERAPEUTICS, published 2019).

T1: monomeric human CEA extracellular domain (CEA ECD; CEACAM5) (human, UniProt P06731 35-685)
T1 construct: extracellular domain; not tied to the assay protein; also called CEACAM5 (CEA)
T1 sequence (looked up): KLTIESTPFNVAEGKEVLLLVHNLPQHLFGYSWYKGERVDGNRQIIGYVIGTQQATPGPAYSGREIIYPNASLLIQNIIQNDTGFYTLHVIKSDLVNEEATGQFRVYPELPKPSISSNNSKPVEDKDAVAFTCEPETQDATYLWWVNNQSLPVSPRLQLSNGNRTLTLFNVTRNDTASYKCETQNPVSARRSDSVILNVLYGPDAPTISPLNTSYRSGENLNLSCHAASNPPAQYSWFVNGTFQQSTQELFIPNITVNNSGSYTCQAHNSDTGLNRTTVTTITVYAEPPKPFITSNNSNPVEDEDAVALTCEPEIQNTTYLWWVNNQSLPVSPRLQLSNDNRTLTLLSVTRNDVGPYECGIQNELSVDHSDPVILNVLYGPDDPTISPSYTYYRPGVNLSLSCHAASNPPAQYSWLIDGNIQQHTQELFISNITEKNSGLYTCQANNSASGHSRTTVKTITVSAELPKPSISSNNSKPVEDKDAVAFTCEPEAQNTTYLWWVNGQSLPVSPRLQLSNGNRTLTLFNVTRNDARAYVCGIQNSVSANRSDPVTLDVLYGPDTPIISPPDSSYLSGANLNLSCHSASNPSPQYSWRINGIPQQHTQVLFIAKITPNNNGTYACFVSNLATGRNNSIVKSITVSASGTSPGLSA


Key:
[1] = biological target: T2, monomeric human CD40 extracellular domain (CD40 ECD) (human, UniProt P25942 21-193); experiment: BLI (Octet), antibody on anti-human Fc sensor, monomeric ECD analyte, 1:1 model
T2 construct: extracellular domain; it is not tied to the assay protein; also called Hu CD40
From the text: (§1) The Octet systems use propriety BLI to analyze biomolecular interaction.

[2] = biological target: T3, monomeric human DEC205 extracellular domain (DEC205 ECD) (human, UniProt O60449 28-1666); experiment: as above
T3 construct: extracellular domain; none tied to the assay protein
Description: (§2) The Octet systems use propriety BLI to analyze biomolecular interaction. […] Data were analyzed using Octet Data Analysis Software 9.0 (ForteBio) and fitted to the 1:1 binding model. Equilibrium dissociation constants (KD) were calculated by the […].

[3] = biological target: T4, human HER2 expressed on transiently transfected CHO cells (human, UniProt P04626 23-1255); experiment: statement in the macrophage ADCC assay with HER2-expressing CHO cells
T4 construct: whole, on cells; also called HER2-expressing CHO cells; CHO-HER2
Description: Monocyte-derived macrophages were generated by culturing monocytes for 7 days in the presence of GM-CSF. […] After 24 hours, CHO viability was assessed by flow cytometry as a readout of ADCC activity.
Monocytes were isolated from human peripheral blood mononuclear cells (PBMCs) using magnetic bead-based negative selection and cultured 7 days in the presence of GM-CSF to generate macrophages. A CHO cell line was engineered to overexpress human HER2 using standard transient transfection methods and used in assays 2 days after transfection. […] After 24 hours, CHO frequency was assessed by flow cytometry as a readout of ADCC activity.

[4] = biological target: T5, monomeric human HER2 extracellular domain (HER2 ECD) (human, UniProt P04626 23-652); experiment: BLI (Octet), antibody on anti-human Fc sensor, monomeric ECD analyte, 1:1 model
T5 construct: extracellular domain; not tied to the assay protein; also called Hu Her2
From the text: as §1

[5] = biological target: T1, monomeric human CEA extracellular …; experiment: as above
Description: as §2

T2 sequence (P25942 21-193): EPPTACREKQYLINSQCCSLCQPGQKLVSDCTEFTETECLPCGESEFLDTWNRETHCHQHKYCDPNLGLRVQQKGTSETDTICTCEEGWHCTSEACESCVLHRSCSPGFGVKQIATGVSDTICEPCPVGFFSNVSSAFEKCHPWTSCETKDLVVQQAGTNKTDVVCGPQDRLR
T3 sequence (O60449 28-1666): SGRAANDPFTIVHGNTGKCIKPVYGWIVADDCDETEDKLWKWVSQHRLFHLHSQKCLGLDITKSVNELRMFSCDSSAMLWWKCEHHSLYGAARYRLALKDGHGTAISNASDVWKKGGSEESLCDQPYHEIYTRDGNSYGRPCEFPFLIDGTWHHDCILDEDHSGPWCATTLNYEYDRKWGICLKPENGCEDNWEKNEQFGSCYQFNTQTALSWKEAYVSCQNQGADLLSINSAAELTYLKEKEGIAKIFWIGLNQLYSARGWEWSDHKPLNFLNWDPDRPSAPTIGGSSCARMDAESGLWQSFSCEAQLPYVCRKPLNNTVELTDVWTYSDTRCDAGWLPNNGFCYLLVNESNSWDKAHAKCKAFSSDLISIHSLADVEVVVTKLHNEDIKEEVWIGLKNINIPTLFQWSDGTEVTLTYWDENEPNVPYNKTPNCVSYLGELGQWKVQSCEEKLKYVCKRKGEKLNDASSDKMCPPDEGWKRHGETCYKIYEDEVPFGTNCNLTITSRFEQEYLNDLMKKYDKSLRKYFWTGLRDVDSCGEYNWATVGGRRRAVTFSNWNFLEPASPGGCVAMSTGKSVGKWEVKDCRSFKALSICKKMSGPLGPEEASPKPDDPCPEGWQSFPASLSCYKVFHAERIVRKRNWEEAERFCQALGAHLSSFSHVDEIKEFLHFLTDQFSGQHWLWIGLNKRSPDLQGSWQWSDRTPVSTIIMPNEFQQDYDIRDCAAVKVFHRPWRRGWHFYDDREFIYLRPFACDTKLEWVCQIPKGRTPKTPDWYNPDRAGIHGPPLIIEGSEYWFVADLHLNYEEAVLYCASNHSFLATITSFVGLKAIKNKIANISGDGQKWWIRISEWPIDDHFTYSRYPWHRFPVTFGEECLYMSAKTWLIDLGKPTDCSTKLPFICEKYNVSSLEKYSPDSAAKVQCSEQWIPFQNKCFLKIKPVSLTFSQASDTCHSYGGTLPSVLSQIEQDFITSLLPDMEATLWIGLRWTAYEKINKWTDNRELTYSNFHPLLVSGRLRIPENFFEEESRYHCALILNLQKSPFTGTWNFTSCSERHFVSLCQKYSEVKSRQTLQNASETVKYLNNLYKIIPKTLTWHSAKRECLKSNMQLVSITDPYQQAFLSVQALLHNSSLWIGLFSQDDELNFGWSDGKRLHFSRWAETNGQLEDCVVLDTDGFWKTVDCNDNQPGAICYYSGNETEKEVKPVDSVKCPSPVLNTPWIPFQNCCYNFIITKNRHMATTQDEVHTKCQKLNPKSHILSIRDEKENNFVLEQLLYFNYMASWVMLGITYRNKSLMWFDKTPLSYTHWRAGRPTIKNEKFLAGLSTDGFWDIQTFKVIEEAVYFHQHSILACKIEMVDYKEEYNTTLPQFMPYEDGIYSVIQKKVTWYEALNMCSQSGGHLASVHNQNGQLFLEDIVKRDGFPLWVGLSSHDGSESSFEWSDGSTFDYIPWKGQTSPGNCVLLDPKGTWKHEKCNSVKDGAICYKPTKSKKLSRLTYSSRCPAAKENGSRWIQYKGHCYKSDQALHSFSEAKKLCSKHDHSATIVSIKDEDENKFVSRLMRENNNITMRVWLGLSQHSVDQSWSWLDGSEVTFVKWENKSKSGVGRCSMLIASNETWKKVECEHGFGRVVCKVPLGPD

binding result [1]	binding result [2]	binding result [3]	binding result [4]	binding result [5]	Binder
no binding (tested: 1.2 nM to 300 nM)	no binding (tested: 1.2 nM to 300 nM)	–	–	–	parental anti-HER2 monoclonal antibody (SBT-050G1), pertuzumab (antibody, human IgG1, kappa, also called Parental anti-HER2 antibody; Parental Anti-HER2 Antibody) heavy: not shown light: not shown
–	–	no binding	no binding (tested: 1.2 nM to 300 nM)	no binding (tested: 1.2 nM to 300 nM)	parental anti-CD40 monoclonal antibody (SBT-040G1) (antibody, human IgG1, kappa, Human IgG1 anti-CD40; also called Parental anti-CD40 antibody; Parental Anti-CD40 Antibody) heavy: not shown light: DIQMTQSPSSVSASVGDRVTITCRASQGIYSWLAWYQQKPGKAPNLLIYTASTLQSGVPSRFSGSGSGTDFTLTISSLQPEDFATYYCQQANIFPLTFGGGTKVEIKRTVAAPSVFIFPPSDEQLKSGTASVVCLLNNFYPREAKVQWKVDNALQSGNSQESVTEQDSKDSTYSLSSTLTLSKADYEKHKVYACEVTHQGLSSPVTKSFNRGEC
